Measurements as given in patent publication US20260209318A1 (NATIONAL UNIVERSITY OF SINGAPORE, published 2026).

Molecular target: SARS-CoV-2 spike protein RBD (SARS-CoV-2, UniProt P0DTC2 319-541)
Test: multiplex sVNT, RBD-coated beads, PE-hACE2 as competitor

B1: SS6V11-E7 (antibody, V domains shown)
VH: QVQLQESGPGLVKPSETLSLTCTVSGGFIGPHYWSWVRQPPGKGLEWIGYIYISGSTNYNPSLKSRLTISVDMSKSQFSLTLSSATAADTAVYYCARGGGYLETGPFEYWGQGTLVTVSS
VL: DIVMTQSPLSLPVTPGEPASISCRSSQSLLQNNGYNYLAWYLQKPGQSPQLLIYLSSTRASGVPDRFSGSGSGTDFTLKISRVEAEDVGVYYCMQSLQIPGTFGQGTRLEIK
B1: binds.
